B1: FAM116A (parent)
chain: TVHEVDIFRCFCPVFLHSQMLWEL
B2: STX5 (parent)
chain: ESTIVELGSIFQQLAHMVKEQEET

Variants of: B1
Test: protein stability index of a GFP-peptide fusion (GPS, HEK-293T) (PSI 1-6); higher = more stable
Settings: c terminus: a fixed tail appended
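Further: lentivirally expressed fusions sorted by FACS into six bins by GFP to DsRed ratio, PSI derived from sequencing read proportions per bin multiplied by bin number.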

| Variant | protein stability index |
| --- | --- |
| TVHEVDYFRCFCPVFLHSQMLWEL [I7Y] | 3.48 |
| TVHEVDNFRCFCPVFLHSQMLWEL [I7N] | 1.09 |
| TVHEVDGFRCFCPVFLHSQMLWEL [I7G] | 3.26 |
| TVHEVDMFRCFCPVFLHSQMLWEL [I7M] | 1.22 |
| TVHEVDTFRCFCPVFLHSQMLWEL [I7T] | 2.49 |
| TVHEVDRFRCFCPVFLHSQMLWEL [I7R] | 1.94 |
| TVHEVDCFRCFCPVFLHSQMLWEL [I7C] | 2.28 |
| TVHENDIFRCFCPVFLHSQMLWEL [V5N] | 1.84 |
| TVHETDIFRCFCPVFLHSQMLWEL [V5T] | 3.3 |
| TVHEKDIFRCFCPVFLHSQMLWEL [V5K] | 1.93 |
| TVHESDIFRCFCPVFLHSQMLWEL [V5S] | 2.17 |
| TVHEWDIFRCFCPVFLHSQMLWEL [V5W] | 2.47 |
| TVHERDIFRCFCPVFLHSQMLWEL [V5R] | 4.06 |
| TVHEYDIFRCFCPVFLHSQMLWEL [V5Y] | 2.28 |
| TVHEVDIFDCFCPVFLHSQMLWEL [R9D] | 2.96 |
| TVHEVDIFECFCPVFLHSQMLWEL [R9E] | 4.78 |
| TVHEVDIFACFCPVFLHSQMLWEL [R9A] | 2.82 |
| TVHEVDIFFCFCPVFLHSQMLWEL [R9F] | 2.13 |
| TVHEVDIFPCFCPVFLHSQMLWEL [R9P] | 1.77 |
| TVHEVDIFHCFCPVFLHSQMLWEL [R9H] | 2.19 |
| TVHPVDIFRCFCPVFLHSQMLWEL [E4P] | 3.77 |
| TVHKVDIFRCFCPVFLHSQMLWEL [E4K] | 3.86 |

| Variant | protein stability index |
| --- | --- |
| TVHCVDIFRCFCPVFLHSQMLWEL [E4C] | 1.53 |
| TVHYVDIFRCFCPVFLHSQMLWEL [E4Y] | 3.35 |
| TVHRVDIFRCFCPVFLHSQMLWEL [E4R] | 3.14 |
| TVHTVDIFRCFCPVFLHSQMLWEL [E4T] | 3.43 |
| TVHIVDIFRCFCPVFLHSQMLWEL [E4I] | 3.19 |
| TVHSVDIFRCFCPVFLHSQMLWEL [E4S] | 4.26 |
| TVHDVDIFRCFCPVFLHSQMLWEL [E4D] | 1.46 |
| TVHQVDIFRCFCPVFLHSQMLWEL [E4Q] | 1.79 |
| TVHHVDIFRCFCPVFLHSQMLWEL [E4H] | 3.03 |
| QVHEVDIFRCFCPVFLHSQMLWEL [T1Q] | 3.46 |
| YVHEVDIFRCFCPVFLHSQMLWEL [T1Y] | 2.93 |
| GVHEVDIFRCFCPVFLHSQMLWEL [T1G] | 1.75 |
| MVHEVDIFRCFCPVFLHSQMLWEL [T1M] | 1.98 |
| PVHEVDIFRCFCPVFLHSQMLWEL [T1P] | 1.67 |
| KVHEVDIFRCFCPVFLHSQMLWEL [T1K] | 2.66 |
| IVHEVDIFRCFCPVFLHSQMLWEL [T1I] | 1.4 |
| LVHEVDIFRCFCPVFLHSQMLWEL [T1L] | 1.68 |
| HVHEVDIFRCFCPVFLHSQMLWEL [T1H] | 3.11 |
| RVHEVDIFRCFCPVFLHSQMLWEL [T1R] | 3.09 |
| DVHEVDIFRCFCPVFLHSQMLWEL [T1D] | 4.17 |
| TVHEVDIPRCFCPVFLHSQMLWEL [F8P] | 2.36 |
| TVHEVDIRRCFCPVFLHSQMLWEL [F8R] | 1.45 |

| Variant | protein stability index |
| --- | --- |
| TVHEVDILRCFCPVFLHSQMLWEL [F8L] | 3.07 |
| TVHEVDINRCFCPVFLHSQMLWEL [F8N] | 2.05 |
| TVHEVDIARCFCPVFLHSQMLWEL [F8A] | 2.53 |
| TVHEVDIGRCFCPVFLHSQMLWEL [F8G] | 1.07 |
| TVHEVDIYRCFCPVFLHSQMLWEL [F8Y] | 2.89 |
| TVHEVDIKRCFCPVFLHSQMLWEL [F8K] | 2.31 |
| TVHEVDIHRCFCPVFLHSQMLWEL [F8H] | 1 |
| TVHEVDIVRCFCPVFLHSQMLWEL [F8V] | 2.4 |
| TVHEVDIWRCFCPVFLHSQMLWEL [F8W] | 3.88 |
| TVHEVDICRCFCPVFLHSQMLWEL [F8C] | 2.96 |
| TVHEVDIMRCFCPVFLHSQMLWEL [F8M] | 3.18 |
| TVHEVIIFRCFCPVFLHSQMLWEL [D6I] | 2.2 |
| TVHEVWIFRCFCPVFLHSQMLWEL [D6W] | 3.69 |
| TVHEVPIFRCFCPVFLHSQMLWEL [D6P] | 1.7 |
| TVHEVYIFRCFCPVFLHSQMLWEL [D6Y] | 2.19 |
| TVHEVQIFRCFCPVFLHSQMLWEL [D6Q] | 2.07 |
| TVHEVKIFRCFCPVFLHSQMLWEL [D6K] | 2.61 |
| TVHEVHIFRCFCPVFLHSQMLWEL [D6H] | 2.23 |
| TVHEVNIFRCFCPVFLHSQMLWEL [D6N] | 3.02 |
| TVHEVAIFRCFCPVFLHSQMLWEL [D6A] | 4.47 |
| TAHEVDIFRCFCPVFLHSQMLWEL [V2A] | 1.77 |
| TEHEVDIFRCFCPVFLHSQMLWEL [V2E] | 1.04 |

| Variant | protein stability index |
| --- | --- |
| TCHEVDIFRCFCPVFLHSQMLWEL [V2C] | 2.57 |
| TRHEVDIFRCFCPVFLHSQMLWEL [V2R] | 3.97 |
| TNHEVDIFRCFCPVFLHSQMLWEL [V2N] | 1.76 |
| TYHEVDIFRCFCPVFLHSQMLWEL [V2Y] | 3.92 |
| TQHEVDIFRCFCPVFLHSQMLWEL [V2Q] | 2.08 |
| TMHEVDIFRCFCPVFLHSQMLWEL [V2M] | 2.05 |
| TWHEVDIFRCFCPVFLHSQMLWEL [V2W] | 2.7 |
| TKHEVDIFRCFCPVFLHSQMLWEL [V2K] | 1.73 |
| TVNEVDIFRCFCPVFLHSQMLWEL [H3N] | 3.08 |
| TVFEVDIFRCFCPVFLHSQMLWEL [H3F] | 2.37 |
| TVEEVDIFRCFCPVFLHSQMLWEL [H3E] | 1.82 |
| TVLEVDIFRCFCPVFLHSQMLWEL [H3L] | 2.85 |
| TVTEVDIFRCFCPVFLHSQMLWEL [H3T] | 1.85 |
| TVDEVDIFRCFCPVFLHSQMLWEL [H3D] | 2.26 |
| TVKEVDIFRCFCPVFLHSQMLWEL [H3K] | 2.14 |
| TVPEVDIFRCFCPVFLHSQMLWEL [H3P] | 3.24 |
| TVYEVDIFRCFCPVFLHSQMLWEL [H3Y] | 3.37 |
| TVWEVDIFRCFCPVFLHSQMLWEL [H3W] | 3.13 |
| TVGEVDIFRCFCPVFLHSQMLWEL [H3G] | 3.96 |

Variants of: B2
Test: as above
Settings: c terminus: a fixed tail appended

| Variant | protein stability index |
| --- | --- |
| ESTIVELGSIFQQLAHMVKEQEEV [T24V] | 2.01 |
| ESTIVELGSIFQQLAHMVKEQEER [T24R] | 2.12 |
| ESTIVELGSIFQQLAHMVKEQEEQ [T24Q] | 1.59 |
| ESTIVELGSIFQQLAHMVKEQEEP [T24P] | 2.77 |
| ESTIVELGSIFQQLAHMVKEQEEW [T24W] | 2.89 |
| ESTIVELGSIFQQLAHMVKEQEEY [T24Y] | 2.29 |
| ESTIVELGSIFQQLAHMVKEQEEL [T24L] | 1.5 |
| ESTIVELGSIFQQLAHMVKEQEEN [T24N] | 2.88 |
| ESTIVELGSIFQQLAHMVKEQEES [T24S] | 2 |

— the supplement of paper PMC10567573
